Earlier results in patent US5770693A, “Calpain-inhibiting peptide analogs of the kininogen heavy chain” (Temple University-Of The Commonwealth System of Higher …, priority 1995, dated 1998).

Molecular target: T1, papain (Carica papaya, UniProt P00784)
T1 sequence (P00784 134-345): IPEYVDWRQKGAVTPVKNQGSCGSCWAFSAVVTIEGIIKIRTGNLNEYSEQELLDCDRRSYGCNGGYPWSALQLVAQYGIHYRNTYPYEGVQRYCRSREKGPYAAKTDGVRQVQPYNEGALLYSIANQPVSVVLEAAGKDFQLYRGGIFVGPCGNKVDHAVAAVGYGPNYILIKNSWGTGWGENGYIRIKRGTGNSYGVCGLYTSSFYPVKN

## Gln-Val-Val-Ala-Gly (QVVAG; printed: Gln-Val-Val-Ala-Gly) [pentapeptide contained in kininogen heavy chain domains D2 and D3]
  activity in inhibiting papain (in words): weak activity
